In patent publication US20040091945A1, “Peptides and methods of screening immunogenic peptide vaccines against Alzheimer's Disease” (priority 2002, published 2004):

Target: recombinant HLA A0201 (Homo sapiens, UniProt P04439, D140Y/D185E/D98H/E176V/E277Q/G131W/G231S/I119V/I121R/I166T/I218V/L300P/L318F/N151K/N90K/P208A/P217A/Q86G/Q94H/R138H/R169H/T345S)
Assay: Competition with radiolabelled control peptide for binding to recombinant HLA A0201
Conditions: initial screening, 1 uM peptide, 1 nM rHLA A0201 (FIG. 1)
Procedure: FIG. 1: FIG. 1: Binding of radiolabelled peptide to 1 nM rHLA A0201 in absence or presence of 1 uM Abeta 1-42 or homologue-derived peptides (numbered 1-10; see Table 4). Binding is shown relative to measured binding without competition (maximal binding). The control peptide (ctrl): […] (SEQ ID NO. 1).
The binding (or lack thereof) of HLA-A2.01 epitopes derived from the Abeta homologue LV/EE (modifications at positions 17 and 18) was tested in an in vitro system to validate the computer predictions. Comparisons were made to predicted epitopes from the wild-type human Abeta 1-42 sequence. Recombinant HLA A0201 heavy chains were produced in E. coli and purified from inclusion bodies according to a standard procedure described elsewhere (Ostergaard Pederson, L. et al. 2001). Briefly, HLA 0201 heavy chains (1 nM were incubated for 4 hr. at room temperature with 1 nM iodinated control binding peptide ([…]-SEQ ID No. 1; this peptide has a score of 607.884 when submitted to the ILA Peptide Binding Prediction program at BIMAS), 1000 nM human β2M and graded doses (indicated in figures) of unlabelled peptide of interest (derived from Abeta or its homologue). Receptor bound and free peptide were separated by G25 spun column chromatography (Buus, S. et al. 1995) and counted in a gamma counter (Cobra). The peptides used in this study are listed in Table 4: […]

Molecule	ability to compete away the binding of the control radiolabeled peptide to recombinant HLA-A201 molecules
AEFRHDSGY	did not bind well
FRHDSGYEV	did not bind well
GLMVGGVVI	able to compete
HHQKEEFFA	did not bind well
IIGLMVGGV	able to compete
KEEFFAEDV	did not bind well
KLVFFAEDV	able to compete
LMVGGVVIA	able to compete
YEVHHQKEE	did not bind well
YEVHHQKLV	did not bind well

Target: T1, recombinant HLA A0201 (heavy chain produced in E. coli, with human beta2-microglobulin) (human)
T1 construct: also called rHLA A0201; HLA-A2.01
Assay: competition with iodinated [..] for recombinant HLA A0201; 1 uM unlabelled peptide
Conditions: not given

Molecule	binding result
KLVFFAEDV [Peptide 2, KLVFFAEDV, derived from Abeta 1-42]	binds
LMVGGVVIA (6) [Peptide 10, LMVGGVVIA, derived from Abeta 1-42]	binds
IIGLMVGGV [Peptide 6, IIGLMVGGV, derived from Abeta 1-42]	binds
GLMVGGVVI [Peptide 1, GLMVGGVVI, derived from Abeta 1-42]	binds
